One molecule from PMC5843802, “DATATOC: a novel conjugate for kit-type ^68Ga labelling of TOC at ambient temperature” (EJNMMI Radiopharmacy and Chemistry, 2016) can be followed below.

The format of this data set is physicochemical. On the procedure:
The lipophilicity was determined using the shake-flask method (logP) and qualitatively by radio-HPLC relative to ^68Ga-DOTATOC (Notni et al. [2013]; Du et al. [1998]). Radiolabels were prepared following acetone-PP. Analytical radio-HPLC (LiChrospher 100-RP-18EC, 1 mL/min) for lipophilicity studies was based on a gradient using H2O (A) and MeCN (B), each containing 0.1 % TFA. Mobile phase gradient: 0–1.5 min 1 % B, 1.5–10.5 min 99 % B, 11.5 min 99 % B, 12–15 min 1 % B. The HPLC was coupled to a UV (Hitachi L-7400) and a radioactivity (Gamma Raytest) detection system. HPLC grade solvents were used and degassed by sonication for 15–20 min prior to use.

Consider `C[C@@H](O)[C@@H]1NC(=O)[C@H](CCCCN)NC(=O)[C@@H](Cc2c[nH]c3ccccc23)NC(=O)[C@H](Cc2ccc(O)cc2)NC(=O)[C@@H](NC(=O)[C@@H](Cc2ccccc2)NC(=O)CN2CCN(CC(=O)O)CCN(CC(=O)O)CCN(CC(=O)O)CC2)CSSC[C@@H](C(=O)N[C@H](CO)[C@@H](C)O)NC1=O` [^68Ga-DOTATOC, metal not drawn], for which the “radio-HPLC retention time (tR) as measure of lipophilicity” value amounted to 10.3 min.
